These results are taken from patent US20120129768A1.

This experiment has as its target Glucagon-like peptide-1 receptor (GLP1R). Description: cell-based or functional assay.

Sequence of Liraglutide (peptide) (peptide): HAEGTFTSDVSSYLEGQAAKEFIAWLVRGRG

Liraglutide (peptide) registered a Maximum reaction rate (%) of 96.8%.
